According to publication PMC5563082, “Structural Mechanism for Modulation of Synaptic Neuroligin-Neurexin Signaling by MDGA Proteins” (Neuron, 2017):
Each block holds one binder with its values, some of them ahead of it.

Columns and labels:
[1] = target: T1, human MDGA1 extracellular domain (MDGA1_(ECTO); Gln19-Lys925) (human, UniProt Q8NFP4-1 19-925); assay: SPR; biotinylated NL_(ECTO)-Avitag variants captured from dialysed conditioned medium on streptavidin CM5 chip (500 RU; 550 RU for the ΔSite series; 1000 RU for NL3 and NL3 Arg451Cys in the R451C series); β-NRX1_(LNS6)(±4), MDGA1_(ECTO), MDGA2_(ECTO) injected, 15 concentrations, two-fold series from 50 μM; TBS-CTB (10 mM Tris pH 7.4, 150 mM NaCl, 3 mM CaCl2, 0.005% Tween-20, 1.0 g/L BSA); equilibrium analysis, 1:1 …; details: both partners purified
T1 construct: human MAM domain-containing glycosylphosphatidylinositol anchor protein 1, Gln19-Lys925; Not deglycosylated; also called human MDGA1_(ECTO); source: HEK293T, transient transfection, purified (IMAC, SEC)
T1 sequence (looked up): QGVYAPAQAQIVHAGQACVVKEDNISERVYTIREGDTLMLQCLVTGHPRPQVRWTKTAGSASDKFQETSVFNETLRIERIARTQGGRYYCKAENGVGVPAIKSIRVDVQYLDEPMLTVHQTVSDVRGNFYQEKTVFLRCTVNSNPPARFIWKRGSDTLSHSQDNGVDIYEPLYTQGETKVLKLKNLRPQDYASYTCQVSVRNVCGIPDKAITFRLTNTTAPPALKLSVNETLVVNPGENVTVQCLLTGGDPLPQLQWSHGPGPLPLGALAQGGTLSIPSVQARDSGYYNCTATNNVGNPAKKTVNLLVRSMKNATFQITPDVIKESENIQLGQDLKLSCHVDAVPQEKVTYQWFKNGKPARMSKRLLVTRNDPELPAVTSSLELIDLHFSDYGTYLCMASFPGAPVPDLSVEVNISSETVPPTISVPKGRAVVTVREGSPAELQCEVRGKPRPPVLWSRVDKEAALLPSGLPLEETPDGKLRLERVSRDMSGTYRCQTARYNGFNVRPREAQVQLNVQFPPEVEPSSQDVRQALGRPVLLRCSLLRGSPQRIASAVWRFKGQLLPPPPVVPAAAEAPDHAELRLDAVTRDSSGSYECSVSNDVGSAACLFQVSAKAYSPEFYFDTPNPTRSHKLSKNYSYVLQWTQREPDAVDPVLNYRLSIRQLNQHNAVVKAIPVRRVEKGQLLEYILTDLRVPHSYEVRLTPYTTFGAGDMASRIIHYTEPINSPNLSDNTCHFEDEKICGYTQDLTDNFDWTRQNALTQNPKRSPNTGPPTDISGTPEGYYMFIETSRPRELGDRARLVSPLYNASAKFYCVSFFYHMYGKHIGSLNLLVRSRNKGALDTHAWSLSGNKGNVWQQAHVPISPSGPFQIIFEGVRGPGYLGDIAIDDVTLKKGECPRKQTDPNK

[2] = target: T2, human MDGA2 extracellular domain (MDGA2_(ECTO); Gln21-Lys927) (human, UniProt Q7Z553 21-927); assay: as above; details: both partners purified
T2 construct: human MAM domain-containing glycosylphosphatidylinositol anchor protein 2, Gln21-Lys927; Not deglycosylated; source: HEK293T, transient transfection, purified (IMAC, SEC)
T2 sequence (looked up): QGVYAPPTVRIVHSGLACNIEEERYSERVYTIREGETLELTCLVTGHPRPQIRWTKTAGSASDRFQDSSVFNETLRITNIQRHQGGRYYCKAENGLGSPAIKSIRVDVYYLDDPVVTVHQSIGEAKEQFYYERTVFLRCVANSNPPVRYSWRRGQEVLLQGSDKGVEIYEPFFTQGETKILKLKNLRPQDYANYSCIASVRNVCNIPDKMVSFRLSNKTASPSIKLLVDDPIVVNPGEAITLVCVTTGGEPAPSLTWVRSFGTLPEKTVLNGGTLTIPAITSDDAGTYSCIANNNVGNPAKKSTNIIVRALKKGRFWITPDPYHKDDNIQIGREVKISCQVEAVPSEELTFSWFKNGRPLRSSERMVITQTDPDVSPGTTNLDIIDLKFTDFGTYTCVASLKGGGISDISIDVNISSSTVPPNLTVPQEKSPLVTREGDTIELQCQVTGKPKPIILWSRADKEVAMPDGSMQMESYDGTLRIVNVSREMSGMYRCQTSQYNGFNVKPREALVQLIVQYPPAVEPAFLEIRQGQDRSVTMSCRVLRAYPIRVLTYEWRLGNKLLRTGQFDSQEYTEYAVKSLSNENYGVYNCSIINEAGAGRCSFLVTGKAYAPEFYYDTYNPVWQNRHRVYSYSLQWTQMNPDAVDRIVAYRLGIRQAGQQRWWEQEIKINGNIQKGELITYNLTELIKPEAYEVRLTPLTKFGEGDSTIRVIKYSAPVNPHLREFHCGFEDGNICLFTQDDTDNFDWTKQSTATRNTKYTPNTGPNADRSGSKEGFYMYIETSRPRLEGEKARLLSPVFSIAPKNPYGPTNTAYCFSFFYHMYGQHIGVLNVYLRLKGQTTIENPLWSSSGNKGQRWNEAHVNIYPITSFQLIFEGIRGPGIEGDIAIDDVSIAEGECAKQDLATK

binding result [1]: binds | binding result [2]: binds
B1: human NL3(+A1+A2)_(ECTO), immobilised for SPR (domain or fragment, UniProt Q9NZ94-1 38-636, looked up)
chain: QAPAPTVNTHFGKLRGARVPLPSEILGPVDQYLGVPYAAPPIGEKRFLPPEPPPSWSGIRNATHFPPVCPQNIHTAVPEVMLPVWFTANLDIVATYIQEPNEDCLYLNVYVPTEDVKRISKECARKPNKKICRKGGSGAKKQGEDLADNDGDEDEDIRDSGAKPVMVYIHGGSYMEGTGNMIDGSILASYGNVIVITLNYRVGVLGFLSTGDQAAKGNYGLLDQIQALRWVSENIAFFGGDPRRITVFGSGIGASCVSLLTLSHHSEGLFQRAIIQSGSALSSWAVNYQPVKYTSLLADKVGCNVLDTVDMVDCLRQKSAKELVEQDIQPARYHVAFGPVIDGDVIPDDPEILMEQGEFLNYDIMLGVNQGEGLKFVEGVVDPEDGVSGTDFDYSVSNFVDNLYGYPEGKDTLRETIKFMYTDWADRDNPETRRKTLVALFTDHQWVEPSVVTADLHARYGSPTYFYAFYHHCQSLMKPAWSDAAHGDEVPYVFGVPMVGPTDLFPCNFSKNDVMLSAVVMTYWTNFAKTGDPNKPVPQDTKFIHTKANRFEEVAWSKYNPRDQLYLHIGLKPRVRDHYRATKVAFWKHLVPHLYNLHD
modifications: biotin on the Avitag (in vivo biotinylation by BirA)
notes: source: HEK293T, co-transfected with ER-resident BirA; dialysed conditioned medium, captured on streptavidin chip

binding result [1]: binds | binding result [2]: binds
B2: human NL3(+A2)_(ECTO), immobilised for SPR (domain or fragment, UniProt Q9NZ94-1 38-636, looked up)
chain: QAPAPTVNTHFGKLRGARVPLPSEILGPVDQYLGVPYAAPPIGEKRFLPPEPPPSWSGIRNATHFPPVCPQNIHTAVPEVMLPVWFTANLDIVATYIQEPNEDCLYLNVYVPTEDGSGAKKQGEDLADNDGDEDEDIRDSGAKPVMVYIHGGSYMEGTGNMIDGSILASYGNVIVITLNYRVGVLGFLSTGDQAAKGNYGLLDQIQALRWVSENIAFFGGDPRRITVFGSGIGASCVSLLTLSHHSEGLFQRAIIQSGSALSSWAVNYQPVKYTSLLADKVGCNVLDTVDMVDCLRQKSAKELVEQDIQPARYHVAFGPVIDGDVIPDDPEILMEQGEFLNYDIMLGVNQGEGLKFVEGVVDPEDGVSGTDFDYSVSNFVDNLYGYPEGKDTLRETIKFMYTDWADRDNPETRRKTLVALFTDHQWVEPSVVTADLHARYGSPTYFYAFYHHCQSLMKPAWSDAAHGDEVPYVFGVPMVGPTDLFPCNFSKNDVMLSAVVMTYWTNFAKTGDPNKPVPQDTKFIHTKANRFEEVAWSKYNPRDQLYLHIGLKPRVRDHYRATKVAFWKHLVPHLYNLHD
modifications: biotin on the Avitag (in vivo biotinylation by BirA)
notes: as for B1
